Test results as given in the supplement of paper PMC12042874.
± gives the uncertainty stated by the source.

Experiment: amyloid nucleation score (Sup35N fusion, yeast selection) (log enrichment); library NNK3; higher = more nucleation; inactive = no reads after selection
Procedure, shortened: (§1)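 Nucleation score: DiMSum log enrichment of output over input reads, centred on the mode score of non-aggregating sequences. Only sequences with at least 100 input reads were kept. Reads came from Illumina sequencing of plasmid inserts before and after 7 days of growth at 30°C without adenine and uracil, in psi-negative yeast expressing Sup35N fused to peptides of 20 random codons after 24 hours of induction with 100 μM copper sulfate.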

Row | Substance | amyloid nucleation score
1 | YSCFFIPWRVGAYRTDNFRS | inactive
2 | YSFAVPSNLLLLK | -0.302 ± 0.52
3 | YSGKYVCAVGF | inactive
4 | YSGLGSIVTNGYSYIYGEVL | inactive
5 | YSIIVSRNRNGRLRFRWSNG | -0.368 ± 0.8
6 | YSKYSYSCVDGMIW | inactive
7 | YSLFGWVSMFGC | inactive
8 | YSMDTPCFINSGVFSADPNL | inactive
9 | YSMVFHTWCMRVMRGVFIWM | inactive
10 | YSNHLD | inactive
11 | YSNYCGQFSIVPIVFFYIVI | 1.1 ± 0.15
12 | YSQLRARMKCVYLGY | inactive
13 | YSSPRSVNSYGLDYVYRTA | inactive
14 | YSVFGVNKQMAFAVCDWHHC | 0.477 ± 0.17
15 | YSVMSNHETIYYMSVS | inactive
16 | YTDSLVLPHGHMIGRVQSFY | inactive
17 | YTFNVNITPFTMYHSFIYFS | 3.08 ± 0.051
18 | YTIYIIIRW | 1.03 ± 0.084
19 | YTKATHSVMFGFTVIVVF | inactive
20 | YTLMFNCRFALLFYYTFSYG | inactive
21 | YTMVWFLSSYSNY | inactive
22 | YTVSS | inactive

Row | Substance | amyloid nucleation score
23 | YVFSTWSSP | inactive
24 | YVGTYNFICEAYALDMTEQW | inactive
25 | YVICVISVQRWTM | inactive
26 | YVIICYST | -0.539 ± 1
27 | YVIITGRKQGITNM | inactive
28 | YVKGRSETCPKDRIKGVRSD | inactive
29 | YVKPDDDAQVKVGWGQFSVG | inactive
30 | YVLKLSRYMPN | inactive
31 | YVLNKGFWGGNTLQSWRVSD | inactive
32 | YVLRLASCSFTPVSEVHLSW | inactive
33 | YVMNHTLGAILNAFRGI | 1.04 ± 0.17
34 | YVNLCLGANPRSYMFKYGTH | 0.197 ± 0.66
35 | YVNLHPMLATAAIYVNSSAG | inactive
36 | YVPIIWYASQHLVPSKSYSA | inactive
37 | YVRIWSFMNYAVMVSITLIV | inactive
38 | YVRWCQWYGETDGPCCRNTV | inactive
39 | YVSCK | inactive
40 | YVVFFDFLSQTVIWVSPGRF | inactive
41 | YVVPRFTVMGEQKKCQWRSL | inactive
42 | YVWMKGHNHYFFESMDVYLM | inactive
43 | YVYSVFFYRWW | inactive
44 | YWAQLPNPPYLLCPH | inactive

Row | Substance | amyloid nucleation score
45 | YWFDSPPSFRAYPCWNR | inactive
46 | YWLGA | inactive
47 | YWLIRDLWRGRGS | inactive
48 | YWLRVIKRHRDRHR | inactive
49 | YWMPIDLGFSSLNWPESSRS | inactive
50 | YWNFYSSNLYWT | inactive
51 | YWVRNVGYRRNSSSCTWSRG | inactive
52 | YWVTLFRSARVWMITLNLFD | inactive
53 | YYCMFVGD | 1.24 ± 0.15
54 | YYDMIMLPAKSDANRCYGCA | inactive
55 | YYFCMLS | 2.55 ± 0.072
56 | YYFFRKYEENFSGSNTGLVI | inactive
57 | YYFRAQADCFMYICVLDLDG | inactive
58 | YYFTFFIKCMRNIMVNSMAA | inactive
59 | YYNTYCTVDIYYLNPCVNLQ | 3.01 ± 0.056
60 | YYRLFLI | inactive
61 | YYSVMCRVRVA | inactive
62 | YYVRRIMT | inactive
63 | YYWCFSF | 2.23 ± 0.06
64 | YYYLR | inactive

Experiment: amyloid nucleation score (Sup35N fusion, yeast selection) (log enrichment); library NNK2; higher = more nucleation; inactive = no reads after selection
Procedure, shortened: as §1

Row | Substance | amyloid nucleation score
65 | AAAYCYRTEEW | 1.6 ± 0.22
66 | ACCRTNFATLVLKEKMNLD | 0.326 ± 0.3
67 | ACFSNMDCPGGFVHVFALYG | inactive
68 | ACQPVWIESRFSLAERTRLS | 0.012 ± 1
69 | ACRLISLVML | inactive
70 | ACVTPTAARNQIPALIYDTS | -0.135 ± 0.63
71 | ADCFWAIDYPTWAYRIYGSH | inactive
72 | ADLSRRLGMFVVLCLGGWAW | -0.326 ± 0.63
73 | ADRWYYMQPNTLCSNVTANA | 1.26 ± 0.37
74 | ADYGVGSRFFVALFSNVFGV | 8.15 ± 0.071
75 | ADYLRDSFQRWLMEVGLDRR | 1.44 ± 0.26
76 | AEADGYLFSALHTPYWTSGV | 0.294 ± 0.64
77 | AEQRWTVRIVLSYYVSKINI | 0.316 ± 0.65
78 | AFCMDYAAQSAVTRSRDSCS | 0.909 ± 0.53
79 | AFESKAPGRSSLVGIACSYS | -0.48 ± 0.48
80 | AFFACRNASSHTLWMLG | 5.91 ± 0.07
81 | AFHRECPGSSVQDWFTWRGT | -0.36 ± 0.63
82 | AFLSLFNSYWYFVFAKLF | -0.558 ± 0.74
83 | AFQWYLM | -0.693 ± 0.18
84 | AFSSCSMFATNRLPTSYKSD | 3.48 ± 0.084
85 | AFTCYVETSIIMPNMS | -0.734 ± 0.76
86 | AFYCQRDRVE | 3.18 ± 0.099
87 | AGLLPENYFSCILGINVVIF | 3.13 ± 0.065
88 | AGPAQQYMCMTCVTSVHTDP | 8.84 ± 0.045
89 | AGPDSVQCRCSLKSSEGSCG | 6.776 ± 0.066
90 | AGRLLGNVGNWRANEGAGGD | -0.833 ± 1.1

Row | Substance | amyloid nucleation score
91 | AGSSSVNQITCLH | -0.22 ± 1
92 | AHHCVGYCSHIFQDPRGRVM | 0.22 ± 0.44
93 | AHKLCSFSVSKHHFWRLNGK | -0.023 ± 0.62
94 | AHLAKSKVGLFCHNVMFEVP | -0.381 ± 1.1
95 | AHLARGGWFVKRCYSGGDVF | -0.087 ± 0.76
96 | AICMAY | 1.27 ± 0.095
97 | AINLGSDYKWSGMAFVKG | 0.285 ± 1
98 | AIPSRPSFLKPQPRILFTIP | -0.702 ± 0.39
99 | AISGWCNMNCKLGKQWDYLV | 1.25 ± 0.66
100 | AISVKKWSFHEKKRNTMLT | -0.027 ± 0.28
101 | AIWGTHPQRRDIRKRERIVV | -0.205 ± 0.27
102 | AKCPIRNRSLSCIQWSGGAK | 0.398 ± 0.27
103 | AKDRTCRWLISKQSIPDSRA | 0.119 ± 0.27
104 | AKKLMSWEAVVLWGASRCVT | 1.08 ± 0.42
105 | AKVWDCGSPKVQYIVARQVV | 0.042 ± 0.46
106 | ALAACSNSRG | 0.416 ± 0.54
107 | ALCRGW | -0.689 ± 0.41
108 | ALCWVGSYSACLRIFKPSRM | 0.521 ± 0.41
109 | ALFRD | 0.066 ± 1
110 | ALFSIITVFSVRLVVWT | inactive
111 | ALGENAPILDRWLIGSLVFL | 1.77 ± 0.39
112 | ALHSWFRMSSLSMYIVDMGG | -0.077 ± 0.76
113 | ALKNLHAHTG | 0.015 ± 0.8
114 | ALPCRLISFFALVGWIVG | -0.088 ± 0.49
115 | ALPTWWVDKNLLSCLYSELS | -0.104 ± 0.62
116 | ALRISQFCIL | -0.261 ± 1.1

Row | Substance | amyloid nucleation score
117 | ALRYVMRLY | 2.53 ± 0.11
118 | ALSYFTGCRF | 0.766 ± 0.47
119 | ALYLMTFPSRDLIRACEEA | 0.678 ± 0.56
120 | AMGMRTSYCGC | inactive
121 | AMPSNMLGTSGSYDAC | 0.404 ± 0.66
122 | AMQVVTVLNATACEMWAMGL | 7.498 ± 0.034
123 | AMTTRFCGVFLKGWL | 0.176 ± 0.64
124 | AMVLLYDGTGSTGVNPGQAG | 0.987 ± 0.67
125 | AMVWGSIFSRKSQGLSHSSG | inactive
126 | ANLFVCMDDM | -0.051 ± 0.23
127 | ANLRNSW | -0.82 ± 0.56
128 | ANQDGNCFGFISVGSQLSLM | 0.387 ± 0.8
129 | ANWQWPYCCCCLEGIGRNLF | 4.94 ± 0.073
130 | APFLGRLEVRV | 0.563 ± 0.37
131 | APFQRPSSPTDREYRNGALL | 1.27 ± 0.23
132 | APTQDTLEFRHISFEVVWRT | 2.84 ± 0.18
133 | AQAMLSNTILIYEYRDLFIV | -0.962 ± 0.78
134 | AQNLGFHEMGLAKCCRVGLY | 0.233 ± 0.44
135 | AQVDGSISSSSVVSVLKSEV | -0.262 ± 0.36
136 | ARCIQVMVIGISWRVGCMPT | 0.521 ± 0.36
137 | ARCNCL | 0.559 ± 0.49
138 | ARDNQMARDI | 2.83 ± 0.15
139 | AREHPKY | 0.645 ± 0.14
140 | ARFASIWVWTLGDCWRKCSY | -0.152 ± 0.76
141 | ARFFGFYYPTTGIPGNYGFC | -0.315 ± 1
142 | ARHMHSASYNYTGTRSYSFY | 5.56 ± 0.091

Row | Substance | amyloid nucleation score
143 | ARNPDFRCDSASI | -0.146 ± 1
144 | ARSLTKSLARYRGRMQMTGP | 0.929 ± 0.3
145 | ARTRLALWGLQRRGSPVFDN | 0.157 ± 0.63
146 | ARTSLCESTWPTNVRIGPKS | 0.498 ± 0.64
147 | ASAAAHVRIYQMIFVFERQL | 0.001 ± 0.48
148 | ASASSVIAMRNRMGGLNRFC | -0.302 ± 0.24
149 | ASEGVGCFV | inactive
150 | ASGKWHSCAGSGDYM | -0.453 ± 0.33
151 | ASGLLPDLDVEKEDRCGIYE | 0.859 ± 0.52
152 | ASHLVVTLVNKVKCNAVVRG | 0.758 ± 0.21
153 | ASILMSRKTMGSNRHCSFVG | 0.345 ± 0.3
154 | ASKSYIITSSCRASLTVSSL | inactive
155 | ASMDSSVPRAGDAGRSDMSS | 2.26 ± 0.14
156 | ASSFMSDGRT | 0.35 ± 0.56
157 | ASSNLNDTYITIDADSVHRR | 0.033 ± 0.49
158 | ASTFYMVGSIG | 2.8 ± 0.083
159 | ASYQRSCILRRFTFVSCILI | 1.56 ± 0.17
160 | ATDVCKKLWFALLVSVLVSS | 0.642 ± 0.48
161 | ATESIMLLPYNTDPSMTWLT | 0.227 ± 0.55
162 | ATFFILRTYGVWVTSIKRRS | 0.157 ± 1
163 | ATYPVSATGSGELWVDRGQE | 0.603 ± 0.38
164 | AVATGNTCSPVSVRKSLGQS | 1.87 ± 0.13
165 | AVELGSGGALSRDKLQGQDG | 0.791 ± 0.74
